Experimental findings from publication PMC5923425, “Structural analysis of human ARS2 as a platform for co-transcriptional RNA sorting” (Nature Communications, 2018) are described below.

T1: ARS2^147–871 (human, UniProt Q9BXP5-4 147-871)
T1 construct: human ARS2 (SRRT) isoform-e, 871 residues, residues 147-871, cloned into pETM11; also called hARS2; SRRT; source: E. coli Rosetta 2, purified (Ni-Sepharose, TEV cleavage, HiTrap Q, heparin if necessary, SEC); not shown: His6, N-terminal, cleaved
T1 sequence (looked up): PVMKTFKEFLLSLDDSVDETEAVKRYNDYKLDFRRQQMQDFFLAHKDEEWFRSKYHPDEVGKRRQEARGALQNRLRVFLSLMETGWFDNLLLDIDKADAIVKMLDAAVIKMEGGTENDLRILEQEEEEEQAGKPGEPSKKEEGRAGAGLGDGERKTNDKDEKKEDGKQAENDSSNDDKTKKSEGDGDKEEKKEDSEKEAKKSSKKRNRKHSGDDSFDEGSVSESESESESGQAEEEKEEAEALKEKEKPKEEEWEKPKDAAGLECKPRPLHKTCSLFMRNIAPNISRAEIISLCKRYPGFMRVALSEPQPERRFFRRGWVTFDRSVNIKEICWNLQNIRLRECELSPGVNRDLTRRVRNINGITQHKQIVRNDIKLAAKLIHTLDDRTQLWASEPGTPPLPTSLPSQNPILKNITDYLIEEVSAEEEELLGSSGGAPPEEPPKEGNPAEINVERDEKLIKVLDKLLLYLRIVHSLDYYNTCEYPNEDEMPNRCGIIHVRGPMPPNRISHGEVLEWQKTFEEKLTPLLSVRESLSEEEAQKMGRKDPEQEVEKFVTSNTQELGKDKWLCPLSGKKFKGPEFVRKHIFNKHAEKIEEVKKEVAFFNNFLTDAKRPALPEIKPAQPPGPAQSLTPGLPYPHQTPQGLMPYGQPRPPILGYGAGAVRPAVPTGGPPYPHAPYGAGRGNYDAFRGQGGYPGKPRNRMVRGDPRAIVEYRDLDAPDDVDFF

T2: GST-tagged ARS2^147–871 (human, UniProt Q9BXP5-4 147-871)
T2 construct: human ARS2 (SRRT) isoform-e, residues 147-871; The cloning of the GST fusion is not described; also called GST-ARS2; source: E. coli Rosetta 2 (said of all constructs but full-length NCBP3); held on glutathione sepharose
T2 sequence (looked up): T1 sequence (looked up)

T3: ARS2^147–270+494–763 (human, UniProt Q9BXP5-4 147-270; Q9BXP5-4 494-763)
T3 construct: human ARS2 (SRRT) isoform-e, residues 147-270, cloned into pETM11; human ARS2 (SRRT) isoform-e, residues 494-763 (lacks the RRM domain), cloned for co-expression into pDUET and pET15b; Lacks the unstructured regions and the RRM domain; source: E. coli Rosetta 2, two fragments co-expressed, purified; not shown: His6, N-terminal, cleaved
T3 sequence (looked up) 1: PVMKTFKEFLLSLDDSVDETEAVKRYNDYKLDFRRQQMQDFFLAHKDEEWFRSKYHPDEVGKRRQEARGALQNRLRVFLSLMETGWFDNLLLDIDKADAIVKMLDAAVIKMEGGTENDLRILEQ
T3 sequence (looked up) 2: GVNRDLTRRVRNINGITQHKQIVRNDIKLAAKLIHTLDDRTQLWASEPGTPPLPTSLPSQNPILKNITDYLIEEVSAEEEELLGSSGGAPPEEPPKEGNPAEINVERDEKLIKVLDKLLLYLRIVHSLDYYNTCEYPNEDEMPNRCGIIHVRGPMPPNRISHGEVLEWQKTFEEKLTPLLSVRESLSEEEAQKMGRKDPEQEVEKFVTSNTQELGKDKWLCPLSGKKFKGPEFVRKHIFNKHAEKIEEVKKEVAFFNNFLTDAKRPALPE

B1: ARS2^147–270+408–763ΔloopB (domain or fragment, human)
chain 1: T3 sequence (looked up) 1
chain 2: GLECKPRPLHKTCSLFMRNIAPNISRAEIISLCKRYPGFMRVALSEPQPERRFFRRGWVTFDRSVNIKEICWNLQNIRLRECELSPGVNRDLTRRVRNINGITQHKQIVRNDIKLAAKLIHTLDDRTQLWASEPGTPPLPTSLPSQNPILKNITDYLIEEGSGSGSERDEKLIKVLDKLLLYLRIVHSLDYYNTCEYPNEDEMPNRCGIIHVRGPMPPNRISHGEVLEWQKTFEEKLTPLLSVRESLSEEEAQKMGRKDPEQEVEKFVTSNTQELGKDKWLCPLSGKKFKGPEFVRKHIFNKHAEKIEEVKKEVAFFNNFLTDAKRPALPE
notes: human ARS2 (SRRT) isoform-e, residues 147-270; human ARS2 (SRRT) isoform-e, from 408 to E567, before the deleted loop B; linker that replaces loop B (568-598); human ARS2 (SRRT) isoform-e, from E599 to 763, after the deleted loop B; the crystallisation methods print ∆566–598GSGSGS; also called ARS2^147–270+408–763Δ568–598 (Δloop B); Human ARS2 147-270+408-763 Δloop B: Δ568–598 E567–GSGSGS–E599; …
B2: FLASH^921–946 peptide (peptide, UniProt Q9UKL3 921-946, looked up)
peptide: EADTCKNSPLDELEEGEIRSDSETSK
notes: FLASH (FLICE-associated huge protein), residues 921-946, holds FARB (931-943); source: synthetic peptide, bought: GeneScript
B3: NCBP3^1–282 (domain or fragment, human, UniProt Q53F19-1 1-282, looked up)
chain: MAAVRGLRVSVKAEAPAGPALGLPSPEAESGVDRGEPEPMEVEEGELEIVPVRRSLKELIPDTSRRYENKAGSFITGIDVTSKEAIEKKEQRAKRFHFRSEVNLAQRNVALDRDMMKKAIPKVRLETIYICGVDEMSTQDVFSYFKEYPPAHIEWLDDTSCNVVWLDEMTATRALINMSSLPAQDKIRSRDASEDKSAEKRKKDKQEDSSDDDEAEEGEVEDENSSDVELDTLSQVEEESLLRNDLRPANKLAKGNRLFMRFATKDDKKELGAARRSQYYMK
notes: cloned into pETM11; also called N-terminal region of NCBP3; source: E. coli Rosetta 2, purified; not shown: His6, N-terminal, cleaved
B4: full-length NCBP3 (residues 1–620) (natural protein, human, UniProt Q53F19-1 1-620, looked up)
chain: MAAVRGLRVSVKAEAPAGPALGLPSPEAESGVDRGEPEPMEVEEGELEIVPVRRSLKELIPDTSRRYENKAGSFITGIDVTSKEAIEKKEQRAKRFHFRSEVNLAQRNVALDRDMMKKAIPKVRLETIYICGVDEMSTQDVFSYFKEYPPAHIEWLDDTSCNVVWLDEMTATRALINMSSLPAQDKIRSRDASEDKSAEKRKKDKQEDSSDDDEAEEGEVEDENSSDVELDTLSQVEEESLLRNDLRPANKLAKGNRLFMRFATKDDKKELGAARRSQYYMKYGNPNYGGMKGILSNSWKRRYHSRRIQRDVIKKRALIGDDVGLTSYKHRHSGLVNVPEEPIEEEEEEEEEEEEEEEEDQDMDADDRVVVEYHEELPALKQPRERSASRRSSASSSDSDEMDYDLELKMISTPSPKKSMKMTMYADEVESQLKNIRNSMRADSVSSSNIKNRIGNKLPPEKFADVRHLLDEKRQHSRPRPPVSSTKSDIRQRLGKRPHSPEKAFSSNPVVRREPSSDVHSRLGVPRQDSKGLYADTREKKSGNLWTRLGSAPKTKEKNTKKVDHRAPGAEEDDSELQRAWGALIKEKEQSRQKKSRLDNLPSLQIEVSRESSSGSEAES
notes: human NCBP3, full length, residues 1-620, cloned into pFASTBac HTb; also called NCBP3^1–620; source: High Five insect cells, purified; not shown: His6, N-terminal, cleaved
B5: FARB (FLASH–ARS2-binding region) peptide of FLASH, residues 931–943 (peptide)
peptide: DELEEGEIRSDSE
notes: FLASH (FLICE-associated huge protein), residues 931-943; also called FLASH^931–943; source: synthetic peptide, bought: GeneScript
B6: ARS2^171–270+408–763 (domain or fragment, human)
chain 1: RYNDYKLDFRRQQMQDFFLAHKDEEWFRSKYHPDEVGKRRQEARGALQNRLRVFLSLMETGWFDNLLLDIDKADAIVKMLDAAVIKMEGGTENDLRILEQ
chain 2: GLECKPRPLHKTCSLFMRNIAPNISRAEIISLCKRYPGFMRVALSEPQPERRFFRRGWVTFDRSVNIKEICWNLQNIRLRECELSPGVNRDLTRRVRNINGITQHKQIVRNDIKLAAKLIHTLDDRTQLWASEPGTPPLPTSLPSQNPILKNITDYLIEEVSAEEEELLGSSGGAPPEEPPKEGNPAEINVERDEKLIKVLDKLLLYLRIVHSLDYYNTCEYPNEDEMPNRCGIIHVRGPMPPNRISHGEVLEWQKTFEEKLTPLLSVRESLSEEEAQKMGRKDPEQEVEKFVTSNTQELGKDKWLCPLSGKKFKGPEFVRKHIFNKHAEKIEEVKKEVAFFNNFLTDAKRPALPE
notes: human ARS2 (SRRT) isoform-e, residues 171-270, cloned into pETM11; human ARS2 (SRRT) isoform-e, residues 408-763, cloned for co-expression into pDUET and pET15b; Two co-expressed fragments of one protein that fold into one core; also called crystallised core; source: E. coli Rosetta 2, two fragments co-expressed, purified; not shown: His6, N-terminal, cleaved

The target in assay [1] is CBP80 (NCBP1) (endogenous) (UniProt Q09161). Briefly: EGFP pull down, LC–MS/MS (AP–MS, TMT labelled). The following applies: HEK 293T/17 cells; three independent affinity purifications per bait, except ARS2 wt in b (one pull down); read off a plot.
Assay [2] has as its target CBP20 (NCBP2) (endogenous) (UniProt P52298). Briefly: EGFP pull down, LC–MS/MS (AP–MS, TMT labelled). Conditions: HEK 293T/17 cells; three independent affinity purifications per bait, except ARS2 wt in b (one pull down); read off a plot.
The target in the next assay is PHAX (endogenous) (UniProt Q9H814). Kind of assay: EGFP pull down, LC–MS/MS (AP–MS, TMT labelled). The following applies: HEK 293T/17 cells; three independent affinity purifications per bait, except ARS2 wt in b (one pull down); read off a plot.
For assay [3], the target named is B4. Kind of assay: pull-down; purified recombinant NCBP3 constructs immobilised on m7GTP sepharose, incubated with CBP80 and/or wild type or mutant ARS2; eluted fractions on Coomassie-stained SDS-PAGE. The following applies: both partners purified.
Assay [4] concerns the target T1, ARS2^147–871. Briefly: ITC; MicroCal ITC200, 25 °C, ARS2 constructs with FLASH peptides; high salt (HS): buffer containing 250 mM NaCl; single-site fit; which partner was injected is not told. Conditions: both partners purified. (In ITC the heat of successive injections is recorded.)
In assay [5] the target is T1, ARS2^147–871. Briefly: ITC; MicroCal ITC200, 25 °C, ARS2 constructs with NCBP3 1–282; buffer containing 250 mM NaCl; injections of 2.5 µL. The following applies: both partners purified.
Another assay concerns the target T2, GST-tagged ARS2^147–871. Briefly: pull-down; GST-tagged ARS2 147–871 on glutathione sepharose, NCBP3 constructs added, in the absence of the cap analogue. The following applies: both partners purified.
Assay [6] has as its target T1, ARS2^147–871. Kind of assay: SEC; purified proteins mixed, Superdex 200, 120 mM NaCl, 1 mM TCEP, 20 mM HEPES pH 7.8; in the absence of m7GTP; fractions on SDS-PAGE. The following applies: both partners purified. (SEC sorts molecules by how far they enter the pores of the column.)
The target of the next assay is T3, ARS2^147–270+494–763. Kind of assay: ITC; MicroCal ITC200, 25 °C, ARS2 construct with FARB; not marked high salt: 20 mM HEPES, 120 mM, 2 mM TCEP pH 7.8; single-site fit. Conditions: both partners purified.
The target of the assay “ARS2^171–270+408–763” is B6. Briefly: ITC; MicroCal ITC200, 25 °C, ARS2 constructs with FLASH peptides; high salt (HS): buffer containing 250 mM NaCl; single-site fit; which partner was injected is not told. Conditions: both partners purified.

What is called Kd is the free concentration of one partner at which half of the binding sites on the other are occupied at equilibrium, for simple one-to-one binding.

Sequence of CBP80 (NCBP1) (endogenous) (Q09161 whole entry): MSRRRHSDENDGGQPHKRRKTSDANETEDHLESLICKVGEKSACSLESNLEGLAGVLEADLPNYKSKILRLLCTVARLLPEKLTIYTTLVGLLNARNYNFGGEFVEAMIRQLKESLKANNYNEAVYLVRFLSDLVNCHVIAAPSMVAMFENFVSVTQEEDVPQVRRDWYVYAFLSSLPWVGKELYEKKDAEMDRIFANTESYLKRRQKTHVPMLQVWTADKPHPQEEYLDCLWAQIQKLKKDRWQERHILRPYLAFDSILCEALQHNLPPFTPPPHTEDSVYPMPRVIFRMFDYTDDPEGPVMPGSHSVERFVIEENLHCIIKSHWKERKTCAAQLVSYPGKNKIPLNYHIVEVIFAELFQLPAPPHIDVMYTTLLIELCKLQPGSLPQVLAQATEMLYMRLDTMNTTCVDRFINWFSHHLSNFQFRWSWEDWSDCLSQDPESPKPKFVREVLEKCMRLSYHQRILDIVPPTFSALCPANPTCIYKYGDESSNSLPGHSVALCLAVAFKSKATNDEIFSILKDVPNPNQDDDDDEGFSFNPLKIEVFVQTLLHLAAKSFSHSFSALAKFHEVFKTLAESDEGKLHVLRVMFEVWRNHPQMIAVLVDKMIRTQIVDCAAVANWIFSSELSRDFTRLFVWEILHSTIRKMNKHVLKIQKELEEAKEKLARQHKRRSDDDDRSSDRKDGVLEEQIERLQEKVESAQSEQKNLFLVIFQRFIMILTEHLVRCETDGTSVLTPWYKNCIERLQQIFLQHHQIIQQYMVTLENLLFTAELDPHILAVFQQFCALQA
Sequence of PHAX (endogenous) (Q9H814 whole entry): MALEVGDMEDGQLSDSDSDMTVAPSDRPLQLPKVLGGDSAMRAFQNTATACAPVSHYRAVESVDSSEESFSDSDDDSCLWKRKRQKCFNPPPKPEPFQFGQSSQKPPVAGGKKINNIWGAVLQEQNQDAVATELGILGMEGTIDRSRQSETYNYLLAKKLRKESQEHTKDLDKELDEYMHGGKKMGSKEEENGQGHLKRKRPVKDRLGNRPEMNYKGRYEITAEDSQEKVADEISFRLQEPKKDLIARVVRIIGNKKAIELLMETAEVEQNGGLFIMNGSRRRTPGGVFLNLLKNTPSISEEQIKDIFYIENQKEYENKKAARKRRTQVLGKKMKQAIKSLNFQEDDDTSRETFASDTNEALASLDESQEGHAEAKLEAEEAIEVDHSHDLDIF
Sequence of CBP20 (NCBP2) (endogenous) (P52298 whole entry): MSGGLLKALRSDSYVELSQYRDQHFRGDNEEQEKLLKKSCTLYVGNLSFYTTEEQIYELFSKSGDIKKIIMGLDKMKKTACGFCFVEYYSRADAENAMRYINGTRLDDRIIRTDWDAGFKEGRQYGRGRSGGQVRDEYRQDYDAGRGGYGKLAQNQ

For “EGFP–ARS2 wt (from UniProt Q9BXP5-4) R854A; R859A; F871A”, the other: log2 (fold change) is -4 in assay [1], -3.9 in assay [2] and -2.6 in the assay with PHAX (endogenous).

B1: the binding result in [3] is reported as “binds”.

As for B2, the Kd in the assay with ARS2^147–871 [4] is 5.5 µM.

Turning to B3, the binding result with ARS2^147–871 [5] and with GST-tagged ARS2^147–871 was “binds” each time.

Take B4: the binding result in the assay with ARS2^147–871 [6] and with GST-tagged ARS2^147–871 was “binds” throughout.

As for B5, the Kd is 0.5 µM in the assay with ARS2^147–270+494–763, 3.8 µM in the assay with ARS2^171–270+408–763 and 5.1 µM with ARS2^147–871 [4].

Take B6: the binding result in [3] is listed as “binds”.
